The source of these data is US20160176953A1 (Regeneron, published 2016).

What all share (assay): cell-based or functional assay
Assay [1] addresses Hemagglutinin of H13-MD77 virus (Influenza A virus (H13-MD77)).
Assay [2] addresses Hemagglutinin of H1-WS33 virus (Influenza A virus (H1-WS33)).
In assay [3] the target is Hemagglutinin of H1-IVR148 virus (Influenza A virus (H1-IVR148)).
The target in assay [4] is Hemagglutinin of H16-DE09 virus (Influenza A virus (H16-DE09)).
Assay [5] addresses Hemagglutinin of H1N1 A/California/07/2009 virus (Influenza A virus A/California/07/2009 …).
The target of assay [6] is Hemagglutinin of H9-RG26 virus (Influenza A virus (H9-RG26)).

B1: H2aM11829N (antibody, V domains shown)
VH: QVHLVQSGPEVKKPGSSVKVSCKASGVTFISHAISWVRQAPGQGLEWVGGIIAIFGTTNYAQKFQGRVTVTTDKSTNTVYMELSRLRSEDTAIYYCARGETYYEGNFDFWGQGTLVTVSS
VL: VIQMTQSPSSLSASVGDRVTITCRASQSVRSNLNWYQQTPGKAPRLLIYAASSLQSGVPSRFSGSGSGTDFTLTISSLQPEDFATYYCQQSYSTPPITFGQGTRLEIK
As to B1, the “IC50 (nM), cell viability microneutralization assay (MDCK)” value was 2.11 nM in assay [1]; 1.68 nM in assay [2]; 48 nM in assay [3]; 7.39 nM in assay [4]; 3.5 nM in assay [5]; 10.2 nM in assay [6].

B2: H1H11729P (antibody, V domains shown)
VH: QVQLVQSGAEVKKSGSSVKVSCKASGGTFSSYAISWVRQAPGQGLEWMGGIIPIFGTPSYAQKFQDRVTITTDESTSTVYMELSSLRSEDTAVYYCARQQPVYQYNMDVWGQGTTVTVSS
VL: DIQMTQSPSSLSASVGDRVTITCRASQGIRNNLGWYQQKPLKAPKRLIYAASSLQSGVPSRFSGSGSGTEFTLTISSLQPEDFATYYCLQYNNYPWTFGQGTKVEIK
On to B2, for which the “IC50 (nM), cell viability microneutralization assay (MDCK)” value was 33.8 nM in assay [1]; 2.47 nM in assay [2]; 130 nM in assay [3]; 21.6 nM in assay [4]; 4.54 nM in assay [5]; 14.9 nM in assay [6].
